The target in experiment [1] is Clostridium difficile toxin A (Clostridium difficile) (UniProt P16154).
Experiment [2] has the same target. The experiment is described as follows: SPR.

“And” between values parts separate entries of the source, which are not always exact repeats. Equal entries are not always repeated.

B1: A26.8 VHH (parent) (VHH)
VHH: QVKLEESGGGLVQAGGSLRLSCAASERTFSRYPVAWFRQAPGAEREFVAVISSTGTSTYYADSVKGRFTISRDNAKVTVYLQMNNLKREDTAVYFCAVNSQRTRLQDPNEYDYWGQGTQVTVSS
As for B1, the other in experiment [1] was 70 nM and 60%. In addition, in experiment [2], the equilibrium dissociation constant (Kd) – broadly, a measure of binding affinity in units of concentration – came out at 18.7 nM; the dissociation rate constant (koff) – broadly, the rate constant with which the complex falls apart – came out at 0.034 s⁻¹; the association rate constant (kon) – broadly, the rate constant with which the complex forms – came out at 1.8e+06 M⁻¹ s⁻¹.

The values are drawn from article PMC5797146.
